Laboratory results published in US20070253950A1 (Pfizer, published 2007).

Columns and labels:
[1] = target: T1, human RAGE, full length, on cells (human, UniProt Q15109 23-404); assay: cell-based ELISA, transfected 293 cells
T1 construct: on transfected or infected 293 cells, stably transfected CHO cells, or endogenous in human lung sections; also called cell-surface hRAGE; 293-human RAGE
Method: Human embryonic kidney 293 cells (American Tissue Type Culture, Manassas, Va.) cells were plated at 5×10⁶ cells per 10 cm² tissue culture plate and cultured overnight at 37° C. The next day cells were transfected with RAGE expression plasmids (pAdori1-3 vector encoding mouse, human, baboon, cynomologus monkey or rabbit RAGE) using LF2000 reagent (Invitrogen, Carlsbad Calif.) at a 4:1 ratio of reagent to plasmid DNA using the manufacturers protocol. Cells were harvested 48 hrs post-transfection using trypsin, washed once with phosphate buffered saline (PBS), then suspended in growth media without serum at a concentration of 2×10⁶ cells/ml.
Primary antibodies at 1 μg/ml were serially diluted at 1:2 or 1:3 in PBS containing 1% bovine serum albumin (BSA) in a 96-well plate. RAGE-transfected 293 cells or control parental 293 cells (50 μl) at 2×10⁶ cells/ml in serum-free growth medium were added to U-bottom 96 well plate for a final concentration of 1×10⁵ cells/well. The cells were centrifuged at 1600 rpm for 2 minutes. The supernatants were gently discarded by hand with a one-time swing and the plate was patted gently to loose the cell pellet. The diluted primary anti-RAGE antibodies or isotype-matching control antibodies (100 μl) in cold PBS containing 10% fetal calf serum (FCS) were added to the cells and incubated on ice for 1 hour. The cells were stained with 100 μl of diluted secondary anti-IgG antibody HRP conjugates (Pierce Biotechnology, Rockford, Ill.) on ice for 1 hour. Following each step of primary antibody and secondary antibody incubations, the cells were washed 3 times with ice-cold PBS. 100 μl of substrate TMB1 component (BIO FX, TMBW-0100-01) was added to the plate and incubated for 5-30 minutes at room temperature. The color development was stopped by adding 100 μl of 0.18M H₂SO₄. The cells were centrifuged and the supernatants are transferred to a fresh plate and read at 450 nm (Soft MAX pro 4.0, Molecular Devices Corporation, Sunnyvale, Calif.).

[2] = target: T2, human RAGE-strep tag fusion protein (human, UniProt Q15109 23-344); assay: BIACORE, antibody coated on CM5 chip, hRAGE-SA in flow
T2 construct: monomeric soluble human RAGE; also called hRAGE-SA; soluble human streptavidin-tagged RAGE

[3] = target: T3, rhICAM-1-Fc (human, UniProt P05362 28-480); assay: direct binding ELISA, receptor coated 1 µg/ml, antibody 20 µg/ml
T3 construct: also called rhlCAM-1-Fc
Method: These receptors were chosen because they are cell-surface expressed, like RAGE, and their interaction with ligand is similarly dependent on charge. Tested receptors were rhVCAM-1, rhICAM-1-Fc, rhTLR4 (C-terminal His tag), rhNCAM-1, rhB7-H1-Fc mLox1-Fc, hLox1-Fc and hRAGE-Fc (as a positive control). ELISA plates were coated overnight with 1 μg/ml of the listed receptor proteins.

[4] = target: T4, human RAGE-Fc fusion protein (human, UniProt Q15109 23-344); assay: antibody competition ELISA on hRAGE-Fc; competitor: biotinylated XT-M4
T4 construct: amino acids 1-344 of human RAGE appended to the Fc domain of human IgG; also called hRAGE-Fc; huRAGE-Fc
Method: ELISA plates were coated overnight with 1 ug/ml human RAGE-Fc. […] Briefly, plates were coated overnight with 1 ug/ml human RAGE-Fc.

[5] = target: T2, human RAGE-strep tag fusion protein; assay: BIACORE capture assay: hRAGE-SA over antibody captured on anti-human Fc; steady state affinity; FC2
Method: (§1) The assays were performed by coating anti-human Fc antibodies onto a CM5 BIA chip with 5000 RU (pH 5.0, 7 min.) in flow cells 1-4. Each antibody was captured by flowing at 2.0 μg/ml over the anti-Fc antibodies in flow cells 2-4 (flow cell 1 was used as a reference).

[6] = target: T2, human RAGE-strep tag fusion protein; assay: BIACORE capture assay: hRAGE-SA over antibody captured on anti-human Fc; steady state affinity; FC3
Method: as §1

[7] = target: T2, human RAGE-strep tag fusion protein; assay: BIACORE capture assay: hRAGE-SA over antibody captured on anti-human Fc; steady state affinity; FC4
Method: as §1

[8] = target: T5, murine RAGE-strep tag fusion protein (murine, UniProt Q62151 23-343); assay: BIACORE capture assay: mRAGE-SA (SA-Mu RAGE) over antibody captured on anti-human Fc; 1:1 Langmuir global fit; FC2
T5 construct: also called mRAGE-strep; mRAGE-SA
T5 chain: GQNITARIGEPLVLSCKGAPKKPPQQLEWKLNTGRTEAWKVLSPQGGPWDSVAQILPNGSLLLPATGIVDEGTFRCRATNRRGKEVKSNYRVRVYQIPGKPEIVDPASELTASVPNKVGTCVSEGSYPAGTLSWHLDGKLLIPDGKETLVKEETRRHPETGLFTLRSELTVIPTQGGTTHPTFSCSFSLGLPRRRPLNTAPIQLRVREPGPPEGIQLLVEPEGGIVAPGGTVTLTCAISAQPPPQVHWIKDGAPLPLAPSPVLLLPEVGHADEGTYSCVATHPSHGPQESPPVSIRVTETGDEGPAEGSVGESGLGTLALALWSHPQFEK
Method: as §1

[9] = target: T5, murine RAGE-strep tag fusion protein; assay: BIACORE capture assay: mRAGE-SA (SA-Mu RAGE) over antibody captured on anti-human Fc; 1:1 Langmuir global fit; FC4
Method: as §1

[10] = target: T4, human RAGE-Fc fusion protein; assay: ligand competition ELISA, panel 'Blocks hRAGE-Fc interaction with A-beta'; blocked ligand amyloid beta 1-42 peptide

T3 sequence (P05362 28-480 limits assumed): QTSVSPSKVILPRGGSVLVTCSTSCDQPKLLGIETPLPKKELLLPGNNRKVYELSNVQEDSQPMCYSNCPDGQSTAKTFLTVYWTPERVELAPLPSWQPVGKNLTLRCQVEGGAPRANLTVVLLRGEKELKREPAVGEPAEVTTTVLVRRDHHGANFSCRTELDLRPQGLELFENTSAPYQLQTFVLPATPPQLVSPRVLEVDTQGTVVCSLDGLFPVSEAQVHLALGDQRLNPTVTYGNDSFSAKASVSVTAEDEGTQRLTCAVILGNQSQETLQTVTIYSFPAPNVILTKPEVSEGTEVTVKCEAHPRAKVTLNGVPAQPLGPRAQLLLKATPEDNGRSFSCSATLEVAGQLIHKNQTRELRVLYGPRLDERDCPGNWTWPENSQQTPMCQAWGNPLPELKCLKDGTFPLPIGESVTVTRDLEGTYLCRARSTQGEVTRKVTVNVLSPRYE

EC50 [1]: ~0.8 nM
Kd [2]: ~5.5 nM
OD450 [3]: 0.004
IC50 (read off the curve) [4]: ~0.4 µg/mL
Kd [5]: 11 nM
Kd [6]: 11 nM
Kd [7]: 11 nM
Kd [8]: 1.9 nM
koff [8]: 0.0042 s⁻¹
kon [8]: 2.2e+06 M⁻¹ s⁻¹
Kd [9]: 2 nM
koff [9]: 0.0041 s⁻¹
kon [9]: 2.1e+06 M⁻¹ s⁻¹
IC50 (read off the curve) [10]: ~0.1 µg/mL
B1: chimeric XT-M4 (antibody, V domains shown)
VH: EVQLVESGGGLVQPGRSLKLSCVVSGFTFNNYWMTWIRQTPGKGLEWVASINNSGDNTYYPDSVKDRFTISRDNAKSTLYLQMNSLRSEDTATYYCTRGGDITTGFDYWGQGVMVTVSS
VL: DIQMTQSPSSMSVSLGDTITITCRASQDVGIYVNWFQQKPGKSPRRMIYRATNLADGVPSRFSGSRSGSIYSLTISSLESEDVADYHCLEFDEHPLTFGSGTKVEIK
modifications: N-linked oligosaccharide at Asn52 (CDR2) on part of the heavy chains
notes: rat XT-M4 variable regions fused to human kappa light chain and human IgG1 heavy chain constant regions; L234A and G237A in the human IgG1 Fc region; also called chimeric antibody XT-M4; XT-M4-A-1
